# Data from patent US20160024487.
# Tests used:
# [1] = test system: T1, Lys(Dnp)-ATNATX4X3PRIVGG-Lys(Abz), X4 = G, X3 = G
# T1 sequence: KATNATGGPRIVGGK
# [2] = test system: T2, Lys(Dnp)-ATNATX4X3PRIVGG-Lys(Abz), X4 = Y, X3 = V
# T2 sequence: KATNATYVPRIVGGK
# [3] = test system: T3, Lys(Dnp)-ATNATX4X3PRIVGG-Lys(Abz), X4 = N, X3 = M
# T3 sequence: KATNATNMPRIVGGK
# [4] = test system: T4, Lys(Dnp)-ATNATX4X3PRIVGG-Lys(Abz), X4 = A, X3 = E
# T4 sequence: KATNATAEPRIVGGK
# [5] = test system: T5, Lys(Dnp)-ATNATX4X3PRIVGG-Lys(Abz), X4 = G, X3 = I
# T5 sequence: KATNATGIPRIVGGK
# [6] = test system: T6, Lys(Dnp)-ATNATX4X3PRIVGG-Lys(Abz), X4 = S, X3 = S
# T6 sequence: KATNATSSPRIVGGK
# [7] = test system: T7, Lys(Dnp)-ATNATX4X3PRIVGG-Lys(Abz), X4 = Q, X3 = V
# T7 sequence: KATNATQVPRIVGGK
# [8] = test system: T8, Lys(Dnp)-ATNATX4X3PRIVGG-Lys(Abz), X4 = H, X3 = F
# T8 sequence: KATNATHFPRIVGGK
# [9] = test system: T9, Lys(Dnp)-ATNATX4X3PRIVGG-Lys(Abz), X4 = T, X3 = E
# T9 sequence: KATNATTEPRIVGGK
# [10] = test system: T10, Lys(Dnp)-ATNATX4X3PRIVGG-Lys(Abz), X4 = S, X3 = M
# T10 sequence: KATNATSMPRIVGGK
# [11] = test system: T11, Lys(Dnp)-ATNATX4X3PRIVGG-Lys(Abz), X4 = E, X3 = H
# T11 sequence: KATNATEHPRIVGGK
# [12] = test system: T12, Lys(Dnp)-ATNATX4X3PRIVGG-Lys(Abz), X4 = H, X3 = G
# T12 sequence: KATNATHGPRIVGGK
# [13] = test system: T13, Lys(Dnp)-ATNATX4X3PRIVGG-Lys(Abz), X4 = N, X3 = T
# T13 sequence: KATNATNTPRIVGGK
# [14] = test system: T14, Lys(Dnp)-ATNATX4X3PRIVGG-Lys(Abz), X4 = T, X3 = G
# T14 sequence: KATNATTGPRIVGGK
# [15] = test system: T15, Lys(Dnp)-ATNATX4X3PRIVGG-Lys(Abz), X4 = Q, X3 = L
# T15 sequence: KATNATQLPRIVGGK
# [16] = test system: T16, Lys(Dnp)-ATNATX4X3PRIVGG-Lys(Abz), X4 = T, X3 = A
# T16 sequence: KATNATTAPRIVGGK
# [17] = test system: T17, Lys(Dnp)-ATNATX4X3PRIVGG-Lys(Abz), X4 = S, X3 = Q
# T17 sequence: KATNATSQPRIVGGK
# [18] = test system: T18, Lys(Dnp)-ATNATX4X3PRIVGG-Lys(Abz), X4 = E, X3 = A
# T18 sequence: KATNATEAPRIVGGK
# [19] = test system: T19, Lys(Dnp)-ATNATX4X3PRIVGG-Lys(Abz), X4 = E, X3 = T
# T19 sequence: KATNATETPRIVGGK
# [20] = test system: T20, Lys(Dnp)-ATNATX4X3PRIVGG-Lys(Abz), X4 = M, X3 = E
# T20 sequence: KATNATMEPRIVGGK
# [21] = test system: T21, Lys(Dnp)-ATNATX4X3PRIVGG-Lys(Abz), X4 = D, X3 = Y
# T21 sequence: KATNATDYPRIVGGK
# [22] = test system: T22, Lys(Dnp)-ATNATX4X3PRIVGG-Lys(Abz), X4 = S, X3 = T
# T22 sequence: KATNATSTPRIVGGK
# [23] = test system: T23, Lys(Dnp)-ATNATX4X3PRIVGG-Lys(Abz), X4 = S, X3 = D
# T23 sequence: KATNATSDPRIVGGK
# [24] = test system: T24, Lys(Dnp)-ATNATX4X3PRIVGG-Lys(Abz), X4 = H, X3 = Q
# T24 sequence: KATNATHQPRIVGGK
# [25] = test system: T25, Lys(Dnp)-ATNATX4X3PRIVGG-Lys(Abz), X4 = G, X3 = R
# T25 sequence: KATNATGRPRIVGGK
# [26] = test system: T26, Lys(Dnp)-ATNATX4X3PRIVGG-Lys(Abz), X4 = Q, X3 = T
# T26 sequence: KATNATQTPRIVGGK
# [27] = test system: T27, Lys(Dnp)-ATNATX4X3PRIVGG-Lys(Abz), X4 = H, X3 = R
# T27 sequence: KATNATHRPRIVGGK
# [28] = test system: T28, Lys(Dnp)-ATNATX4X3PRIVGG-Lys(Abz), X4 = P, X3 = N
# T28 sequence: KATNATPNPRIVGGK
# [29] = test system: T29, Lys(Dnp)-ATNATX4X3PRIVGG-Lys(Abz), X4 = N, X3 = F
# T29 sequence: KATNATNFPRIVGGK
# [30] = test system: T30, Lys(Dnp)-ATNATX4X3PRIVGG-Lys(Abz), X4 = G, X3 = Q
# T30 sequence: KATNATGQPRIVGGK
# [31] = test system: T31, Lys(Dnp)-ATNATX4X3PRIVGG-Lys(Abz), X4 = D, X3 = F
# T31 sequence: KATNATDFPRIVGGK
# [32] = test system: T32, Lys(Dnp)-ATNATX4X3PRIVGG-Lys(Abz), X4 = S, X3 = A
# T32 sequence: KATNATSAPRIVGGK
# [33] = test system: T33, Lys(Dnp)-ATNATX4X3PRIVGG-Lys(Abz), X4 = T, X3 = I
# T33 sequence: KATNATTIPRIVGGK
# [34] = test system: T34, Lys(Dnp)-ATNATX4X3PRIVGG-Lys(Abz), X4 = S, X3 = I
# T34 sequence: KATNATSIPRIVGGK
# [35] = test system: T35, Lys(Dnp)-ATNATX4X3PRIVGG-Lys(Abz), X4 = G, X3 = F
# T35 sequence: KATNATGFPRIVGGK
# [36] = test system: T36, Lys(Dnp)-ATNATX4X3PRIVGG-Lys(Abz), X4 = H, X3 = T
# T36 sequence: KATNATHTPRIVGGK
# [37] = test system: T37, Lys(Dnp)-ATNATX4X3PRIVGG-Lys(Abz), X4 = H, X3 = W
# T37 sequence: KATNATHWPRIVGGK
# [38] = test system: T38, Lys(Dnp)-ATNATX4X3PRIVGG-Lys(Abz), X4 = G, X3 = V
# T38 sequence: KATNATGVPRIVGGK
# [39] = test system: T39, Lys(Dnp)-ATNATX4X3PRIVGG-Lys(Abz), X4 = N, X3 = G
# T39 sequence: KATNATNGPRIVGGK
substance,measurement,setting,value
Human plasma purified Factor Xa,FXa kcat/KM,[1],16 M⁻¹ s⁻¹
same,FXa kcat/KM,[2],49 M⁻¹ s⁻¹
same,FXa kcat/KM,[3],27 M⁻¹ s⁻¹
same,FXa kcat/KM,[4],180 M⁻¹ s⁻¹
same,FXa kcat/KM,[5],88 M⁻¹ s⁻¹
same,FXa kcat/KM,[6],40 M⁻¹ s⁻¹
same,FXa kcat/KM,[7],430 M⁻¹ s⁻¹
same,FXa kcat/KM,[8],42 M⁻¹ s⁻¹
same,FXa kcat/KM,[9],15 M⁻¹ s⁻¹
same,FXa kcat/KM,[10],46 M⁻¹ s⁻¹
same,FXa kcat/KM,[11],7.7 M⁻¹ s⁻¹
same,FXa kcat/KM,[12],47 M⁻¹ s⁻¹
same,FXa kcat/KM,[13],15 M⁻¹ s⁻¹
same,FXa kcat/KM,[14],21 M⁻¹ s⁻¹
same,FXa kcat/KM,[15],480 M⁻¹ s⁻¹
same,FXa kcat/KM,[16],20 M⁻¹ s⁻¹
same,FXa kcat/KM,[17],45 M⁻¹ s⁻¹
same,FXa kcat/KM,[18],4.3 M⁻¹ s⁻¹
same,FXa kcat/KM,[19],7.9 M⁻¹ s⁻¹
same,FXa kcat/KM,[20],600 M⁻¹ s⁻¹
same,FXa kcat/KM,[21],11 M⁻¹ s⁻¹
same,FXa kcat/KM,[22],32 M⁻¹ s⁻¹
same,FXa kcat/KM,[23],10 M⁻¹ s⁻¹
same,FXa kcat/KM,[24],160 M⁻¹ s⁻¹
same,FXa kcat/KM,[25],130 M⁻¹ s⁻¹
same,FXa kcat/KM,[26],920 M⁻¹ s⁻¹
same,FXa kcat/KM,[27],140 M⁻¹ s⁻¹
same,FXa kcat/KM,[28],580 M⁻¹ s⁻¹
same,FXa kcat/KM,[29],14 M⁻¹ s⁻¹
same,FXa kcat/KM,[30],94 M⁻¹ s⁻¹
same,FXa kcat/KM,[31],11 M⁻¹ s⁻¹
same,FXa kcat/KM,[32],19 M⁻¹ s⁻¹
same,FXa kcat/KM,[33],63 M⁻¹ s⁻¹
same,FXa kcat/KM,[34],55 M⁻¹ s⁻¹
same,FXa kcat/KM,[35],35 M⁻¹ s⁻¹
same,FXa kcat/KM,[36],50 M⁻¹ s⁻¹
same,FXa kcat/KM,[37],320 M⁻¹ s⁻¹
same,FXa kcat/KM,[38],40 M⁻¹ s⁻¹
same,FXa kcat/KM,[39],9.2 M⁻¹ s⁻¹
